Data as given in article PMC11480844.

B1: H2-Kb / B7 (parent)
chain 1: GQQVQQSPTSLVLQEGENAELQCNFSTSLNSMQWFYQRPGGSLVSVFYNPSGTKQSGRLTSTTVIKERRSSLHISSSQITDSGTYLCAMERDMGYKLTFGTGTSLLVDP
chain 2: EAAVTQSPRNKVAVTGGKVTLSCNQTNNHNNMYWYRQDTGHGLRLIHYSYGAGSTEKGDIPDGYKASRPSQENFSLILELATPSQTSVYFCASGDPGDQDTQYFGPGTRLLVL
chain 3: not shown
chain 4: IQKTPQIQVYSRHPPENGKPNILNCYVTQFHPPHIEIQMLKNGKKIPKVEMSDMSFSKDWSFYILAHTEFTPTETDTYACRVKHDSMAEPKTVYWDRDM
chain 5: SIINFEKL
B2: H2-Kb / G6 (parent)
chain 1: AQSVTQPDARVTVSEGASLQLRCKYSYFGTPYLFWYVQYPRQGLQLLLKYYPGDPVVQGVNGFEAEFSKSNSSFHLRKASVHWSDWAVYFCAVTPGGSNAKLTFGKGTKLSVKS
chain 2: NSGVVQSPRYIIKGKGERSILKCIPISGHLSVAWYQQTQGQELKFFIQHYDKMERDKGNLPSRFSVQQFDDYHSEMNMSALELEDSAVYFCASSRQGGDNNQAPLFGEGTRLSVL
chain 3: not shown
chain 4: B1 chain 4
chain 5: SIINFEKL

Variants of: B1
Experiment: % of reporter cells activated (NFAT-GFP), raw
Settings: with B7; scale: % of reporter cells activated
Note: test concentration or dose not given here.

Ratio to parent, by site and new letter:
chain 5 N4: S 1.11 | E 1.35 | Q 1.08 | C 0.908 | I 1.43 | F 1.26 | A 1.31 | R 1 | V 0.985 | W 1.28 | M 1.38 | H 1.49 | T 1.12 | Y 1.03 | L 1.82

Variants of: B2
Experiment: % of reporter cells activated (NFAT-GFP), raw
Settings: with G6; scale: % of reporter cells activated

Ratio to parent of substitutions, site by site:
chain 5 I3: P 0.206 | W 0.276 | V 1.18 | Y 0.272 | Q 0.193 | G 0.226 | L 0.926 | S 0.181 | F 0.523 | R 0.109 | D 0.239 | H 0.288 | C 0.292 | T 0.284 | K 0.276 | N 0.181 | M 0.465 | A 0.333 | E 0.395
chain 5 I2: H 0.259 | S 0.115 | T 0.305 | D 0.412 | A 0.305 | K 0.551 | W 0.185 | P 0.329 | C 0.239 | F 0.226 | Q 0.255 | E 0.453 | M 0.214 | R 0.16 | L 0.247 | G 0.288 | Y 0.284 | V 0.292 | N 0.321
chain 5 E6: P 0.189 | L 0.193 | T 0.362 | R 0.259 | W 7.22 | F 0.914 | S 0.428 | Q 0.292 | Y 0.778 | D 2.75 | V 0.222 | N 0.63 | A 0.724 | M 0.551 | K 0.226 | G 0.506 | C 0.21 | H 0.494 | I 0.321
chain 5 S1: P 1.48 | G 0.235 | M 0.284 | R 1.64 | H 0.218 | Y 0.156 | D 0.395 | C 0.502 | I 0.909 | Q 0.42 | T 0.222 | V 1.09 | W 0.362 | N 0.239 | K 2.47 | A 0.65 | L 3.02 | F 0.449 | E 0.239
chain 5 F5: D 0.313 | T 0.177 | C 0.609 | R 0.247 | E 0.424 | M 1.34 | G 0.198 | A 0.383 | W 0.263 | S 0.362 | N 0.3 | Y 0.576 | H 0.395 | P 0.272 | I 0.263 | K 0.284 | V 0.116 | L 0.959 | Q 2.04
chain 5 N4: R 0.255 | H 0.276 | D 0.267 | G 0.239 | I 0.272 | L 0.284 | E 0.177 | C 0.177 | W 0.148 | K 0.42 | F 0.202 | T 0.235 | Y 0.14 | P 0.198 | Q 0.128 | V 0.193 | A 0.251 | S 0.193 | M 0.173
chain 5 K7: L 0.259 | Q 0.267 | I 0.358 | P 0.346 | G 6.68 | V 0.235 | C 0.272 | T 0.16 | M 0.379 | E 0.276 | H 0.292 | W 0.963 | S 0.963 | A 1.4 | R 14.4 | N 0.412 | F 0.189 | D 0.202 | Y 0.235
chain 5 L8: N 0.148 | I 0.819 | T 0.354 | G 0.457 | P 0.206 | Y 2.09 | M 0.267 | E 0.173 | D 0.152 | K 0.292 | A 0.206 | W 1.92 | H 7.85 | Q 0.165 | F 0.218 | C 0.251 | R 0.617 | V 0.56 | S 0.086
